Measured values published in FireProtDB (doi:10.1529/biophysj.106.099531).
“And” between values parts separate entries of the source, which are not always exact repeats. Equal values may be shown once.

Settings: Pseudomonas aeruginosa (strain ATCC 15692 / DSM 22644 / CIP 104116 / JCM 14847 / LMG 12228 / 1C / PRS 101 / PAO1), pH 7.5, GdnHCl, Fluorescence, Tris 1 mM, NaCl 1.93 M, reversible: Yes, whole UniProt chain shown

B1: Azurin wild type, P00282 (protein)
chain: MLRKLAAVSLLSLLSAPLLAAECSVDIQGNDQMQFNTNAITVDKSCKQFTVNLSHPGNLPKNVMGHNWVLSTAADMQGVVTDGMASGLDKDYLKPDDSRVIAHTKLIGSGEKDSVTFDVSKLKEGEQYMFFCTFPGHSALMKGTLTLK
Question: Which denaturant m value (20 °C) does the source give for B1 here?
Answer: Its denaturant m value is 5.53 kcal/mol/M.

Question: And the “denaturant midpoint (higher = more stable)” value (“denaturant midpoint” below) (20 °C)?
Answer: Its value is 1.74 M.

Question: What about the unfolding free energy (20 °C) of the same protein?
Answer: The unfolding free energy was 9.63 kcal/mol.

Question: And the denaturant m value (-8 °C)?
Answer: Its denaturant m value is 3.63 kcal/mol/M and 6.66 kcal/mol/M.

Question: What about the “denaturant midpoint” value (-8 °C) of the same protein?
Answer: The value was 1.79 M and 1.58 M.

Question: And the unfolding free energy (-8 °C)?
Answer: Its unfolding free energy is 6.89 kcal/mol and 10.5 kcal/mol.

Question: What about the denaturant m value (-10 °C) of the same protein?
Answer: Its denaturant m value is 3.77 kcal/mol/M.

Question: And the “denaturant midpoint” value (-10 °C)?
Answer: The value was 1.73 M.

Question: What about the unfolding free energy (-10 °C) of the same protein?
Answer: Its unfolding free energy is 6.83 kcal/mol.

Question: What about the denaturant m value (-12 °C) of the same protein?
Answer: Its denaturant m value is 3.85 kcal/mol/M and 6.98 kcal/mol/M.

Question: And the “denaturant midpoint” value (-12 °C)?
Answer: Its value is 1.7 M and 1.5 M.

Question: And the unfolding free energy (-12 °C)?
Answer: The unfolding free energy was 6.77 kcal/mol and 10.5 kcal/mol.
